# Laboratory results: article PMC6853996, “Assaying Homodimers of NF-κB in Live Single Cells” (Frontiers in Immunology, 2019)
# “And” between values parts separate entries of the source, which are not always exact repeats. Equal entries are not always repeated.
# T1: mEGFP-RelA (fluorescent fusion protein expressed from the pSF-EF1α-Ub-Neo plasmid), Q04207
# T1 chain: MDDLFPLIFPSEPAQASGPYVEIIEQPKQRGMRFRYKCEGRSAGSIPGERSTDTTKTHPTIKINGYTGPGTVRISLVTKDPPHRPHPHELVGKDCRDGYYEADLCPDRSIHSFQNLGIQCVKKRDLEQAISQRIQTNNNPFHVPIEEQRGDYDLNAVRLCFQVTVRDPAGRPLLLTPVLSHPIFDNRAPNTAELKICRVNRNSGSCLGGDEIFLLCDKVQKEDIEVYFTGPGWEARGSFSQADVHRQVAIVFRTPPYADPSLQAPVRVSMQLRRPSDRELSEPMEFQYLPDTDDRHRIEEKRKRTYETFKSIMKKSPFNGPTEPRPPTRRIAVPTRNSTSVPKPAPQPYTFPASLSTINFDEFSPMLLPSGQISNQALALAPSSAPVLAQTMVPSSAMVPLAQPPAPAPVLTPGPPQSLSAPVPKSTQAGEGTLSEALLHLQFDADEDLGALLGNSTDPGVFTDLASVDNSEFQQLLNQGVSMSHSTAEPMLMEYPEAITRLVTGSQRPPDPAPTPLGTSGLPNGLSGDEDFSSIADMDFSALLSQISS
# T2: mEGFP-RelA from the knock-in (KI) mouse (mEGFP inserted at the endogenous RelA locus) (mouse), Q04207
# T2 chain: T1 chain
# T3: mEGFP-GR (mEGFP-tagged wild-type glucocorticoid receptor), P06537
# T3 chain: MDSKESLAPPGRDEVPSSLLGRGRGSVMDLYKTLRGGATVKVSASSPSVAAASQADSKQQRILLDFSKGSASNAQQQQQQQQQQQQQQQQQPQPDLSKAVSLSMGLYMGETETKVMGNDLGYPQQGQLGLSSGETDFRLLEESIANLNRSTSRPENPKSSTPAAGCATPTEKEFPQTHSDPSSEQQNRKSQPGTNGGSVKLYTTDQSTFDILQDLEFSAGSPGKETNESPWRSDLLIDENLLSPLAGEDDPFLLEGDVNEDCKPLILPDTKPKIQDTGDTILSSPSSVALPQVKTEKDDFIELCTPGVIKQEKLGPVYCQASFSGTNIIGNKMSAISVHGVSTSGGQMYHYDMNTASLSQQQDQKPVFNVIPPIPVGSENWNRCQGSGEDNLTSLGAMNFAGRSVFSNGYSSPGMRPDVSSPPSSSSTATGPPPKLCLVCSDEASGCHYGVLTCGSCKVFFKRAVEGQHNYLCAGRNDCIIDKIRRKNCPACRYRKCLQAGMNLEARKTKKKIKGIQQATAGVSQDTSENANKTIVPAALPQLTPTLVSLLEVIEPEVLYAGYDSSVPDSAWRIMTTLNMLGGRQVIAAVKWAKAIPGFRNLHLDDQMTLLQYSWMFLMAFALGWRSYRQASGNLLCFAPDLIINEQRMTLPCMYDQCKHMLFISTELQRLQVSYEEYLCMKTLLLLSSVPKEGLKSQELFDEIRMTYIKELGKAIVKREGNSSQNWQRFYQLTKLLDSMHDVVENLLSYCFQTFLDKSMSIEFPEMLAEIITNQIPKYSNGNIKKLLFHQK
# B1: mEGFP-RelA (fluorescent fusion protein expressed from the pSF-EF1α-Ub-Neo plasmid), Q04207 1-549 (natural protein)
# chain: T1 chain
# B2: mEGFP-RelA from the knock-in (KI) mouse (mEGFP inserted at the endogenous RelA locus), Q04207 1-549 (natural protein)
# chain: T1 chain
# B3: mEGFP-GR (mEGFP-tagged wild-type glucocorticoid receptor), P06537 1-792 (natural protein)
# chain: T3 chain
# B4: mEGFP-PR (mEGFP-tagged progesterone receptor) (natural protein, UniProt P06401 1-933, looked up)
# chain: MTELKAKGPRAPHVAGGPPSPEVGSPLLCRPAAGPFPGSQTSDTLPEVSAIPISLDGLLFPRPCQGQDPSDEKTQDQQSLSDVEGAYSRAEATRGAGGSSSSPPEKDSGLLDSVLDTLLAPSGPGQSQPSPPACEVTSSWCLFGPELPEDPPAAPATQRVLSPLMSRSGCKVGDSSGTAAAHKVLPRGLSPARQLLLPASESPHWSGAPVKPSPQAAAVEVEEEDGSESEESAGPLLKGKPRALGGAAAGGGAAAVPPGAAAGGVALVPKEDSRFSAPRVALVEQDAPMAPGRSPLATTVMDFIHVPILPLNHALLAARTRQLLEDESYDGGAGAASAFAPPRSSPCASSTPVAVGDFPDCAYPPDAEPKDDAYPLYSDFQPPALKIKEEEEGAEASARSPRSYLVAGANPAAFPDFPLGPPPPLPPRATPSRPGEAAVTAAPASASVSSASSSGSTLECILYKAEGAPPQQGPFAPPPCKAPGASGCLLPRDGLPSTSASAAAAGAAPALYPALGLNGLPQLGYQAAVLKEGLPQVYPPYLNYLRPDSEASQSPQYSFESLPQKICLICGDEASGCHYGVLTCGSCKVFFKRAMEGQHNYLCAGRNDCIVDKIRRKNCPACRLRKCCQAGMVLGGRKFKKFNKVRVVRALDAVALPQPVGVPNESQALSQRFTFSPGQDIQLIPPLINLLMSIEPDVIYAGHDNTKPDTSSSLLTSLNQLGERQLLSVVKWSKSLPGFRNLHIDDQITLIQYSWMSLMVFGLGWRSYKHVSGQMLYFAPDLILNEQRMKESSFYSLCLTMWQIPQEFVKLQVSQEEFLCMKVLLLLNTIPLEGLRSQTQFEEMRSSYIRELIKAIGLRQKGVVSSSQRFYQLTKLLDNLHDLVKQLHLYCLNTFIQSRALSVEFPEMMSEVIAAQLPKILAGMVKPLLFHKK
# notes: progesterone receptor; Assayed in cells treated with progesterone; source: fibroblasts (immortalized), transiently transfected, in live cells
# Key:
# [1] = biological target: T1, mEGFP-RelA (fluorescent fusion protein …); assay: Number and Brightness (N&B) live-cell confocal fluorescence fluctuation microscopy; nuclei of live primary mouse adult fibroblasts (WT or p50/c-Rel double-KO) transiently expressing mEGFP-RelA, 100 ng/mL LPS; brightness ε relative to the monomer control; untagged endogenous RelA present; settings: remark: other sources report otherwise
# [2] = biological target: T1, mEGFP-RelA (fluorescent fusion protein …); assay: Number and Brightness (N&B) live-cell confocal fluorescence fluctuation microscopy; nuclei of live NIH3T3 fibroblasts transiently or stably expressing the mEGFP fusion, 37°C; brightness ε relative to the mEGFP-mutGR monomer control; stimuli 10 ng/mL TNFα, 100 ng/mL LPS, 100 nM Dex, dihydrotestosterone or progesterone; pre-treatments WFA (0.5 or 1 μM, 1 h) or TSA (2 h) before LPS; untagged endogenous protein present; settings: remark: other sources report otherwise
# [3] = biological target: T2, mEGFP-RelA from the knock-in (KI) mouse …; assay: Number and Brightness (N&B) live-cell confocal fluorescence fluctuation microscopy; nuclei of live primary MAFs from the mEGFP-RelA knock-in mouse, treated with TNFα or LPS; all RelA tagged; settings: remark: other sources report otherwise
# [4] = biological target: T3, mEGFP-GR (mEGFP-tagged wild-type …); assay: Number and Brightness (N&B) live-cell confocal fluorescence fluctuation microscopy; nuclei of live NIH3T3 fibroblasts transiently or stably expressing the mEGFP fusion, 37°C; brightness ε relative to the mEGFP-mutGR monomer control; stimuli 10 ng/mL TNFα, 100 ng/mL LPS, 100 nM Dex, dihydrotestosterone or progesterone; pre-treatments WFA (0.5 or 1 μM, 1 h) or TSA (2 h) before LPS; untagged endogenous protein present; settings: remark: other sources report otherwise
# [5] = biological target: the molecule itself; assay: as above
binder,measurement,setting,value
B1,"nuclear brightness (ε) relative to monomer control; WT primary MAFs, LPS",[1],1.29
same,"nuclear brightness (ε) relative to monomer control; p50/c-Rel double-KO primary MAFs, LPS",[1],1.31
same,"percent of RelA-containing dimers in the nucleus that are homodimers (estimated from ε); WT primary MAFs, LPS",[1],20%
same,"median nuclear brightness (ε) relative to monomer control; stably transfected 3T3, LPS",[2],1.75
same,"median nuclear brightness (ε) relative to monomer control; stably transfected 3T3, TNFα",[2],1.61
same,"median nuclear brightness (ε) relative to monomer control; transiently transfected 3T3, TNFα",[2],1.52
same,"nuclear brightness (ε); stably transfected 3T3, 0.5 μM WFA before LPS",[2],1.57
same,"nuclear brightness (ε); stably transfected 3T3, 1 μM WFA before LPS",[2],1.61
same,"nuclear brightness (ε); stably transfected 3T3, TSA before LPS (concentration not given)",[2],1.42 and 1.58
same,"percent dimers (estimated from ε); stably transfected 3T3, LPS",[2],60%
same,"percent dimers (estimated from ε); stably transfected 3T3, TNFα",[2],43%
same,"percent of RelA dimer species that are RelA homodimers (estimated from ε); transiently transfected 3T3, TNFα",[2],35%
B2,"percent of RelA dimer species that are RelA homodimers; knock-in MAFs, TNFα or LPS",[3],< 35%
B3,"nuclear brightness (ε) relative to monomer control; transiently transfected 3T3, Dex",[4],1.52
B4,"nuclear brightness (ε) relative to monomer control; transiently transfected fibroblasts, progesterone",[5],2.07
